Measured values as given in the supplement of paper PMC10899765.

Legend:
Settings in all cases: 20 nM; 72 h
MCF10A [1] = assay: one-nucleolus phenotype percent effect (relative to siNT 0% and siNOL11 100%); higher = more cells with one nucleolus (ribosome biogenesis inhibition)
Procedure: (§1)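 After 72 h, cells were fixed and stained with Hoechst and anti-fibrillarin, and nucleoli per nucleus were counted with CellProfiler. Values are plate-adjusted percent effect for the one-nucleolus and 5+ nucleoli phenotypes, normalised to siNT (0%) and to the positive controls siNOL11 or siKIF11 (100%), as the mean of biological triplicates. Percent viability is the nuclei count relative to siNT.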

MCF10A [2] = assay: percent viability (nuclei count relative to siNT); higher = more viable cells
Procedure: as §1

MCF10A [3] = assay: 5+ nucleoli phenotype percent effect (relative to siNT 0% and siKIF11 100%); higher = more cells with five or more nucleoli
Procedure: as §1

MCF10A [4] = assay: one-nucleolus phenotype percent effect, hitpick validation (relative to siNT 0% and siNOL11 100%); higher = more cells with one nucleolus
Procedure: (§2)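 Primary screen hits (microRNA mimics) were re-picked and rescreened for nucleolar number in MCF10A cells (hitpick validation; percent effect relative to the siNT and siNOL11/siKIF11 controls). A secondary screen measured nucleolar rRNA biogenesis inhibition: after 72 h of transfection at 20 nM, cells were labelled 1 h with 1 mM 5-EU and nucleolar 5-EU signal was quantified, normalised to siNT (0%) and siPOLR1A (100%). Means are over n=5 (MCF10A) or n=2 (RPE-1, HeLa) biological replicates.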

MCF10A [5] = assay: nucleolar rRNA biogenesis percent inhibition (5-EU; siNT 0%, siPOLR1A 100%); higher = stronger inhibition of nucleolar rRNA biogenesis
Procedure: as §2

HeLa = assay: as above
Procedure: as §2

hTERT RPE-1 = assay: as above
Procedure: as §2

MCF10A [6] = assay: 5+ nucleoli phenotype percent effect, hitpick validation (relative to siNT 0% and siKIF11 100%); higher = more cells with five or more nucleoli
Procedure: as §2

| Sequence | one-nucleolus phenotype percent effect (MCF10A [1]) [%] | percent viability (MCF10A [2]) [%] | 5+ nucleoli phenotype percent effect (MCF10A [3]) [%] | one-nucleolus phenotype percent effect (MCF10A [4]) [%] | nucleolar rRNA biogenesis percent inhibition (MCF10A [5]) [%] | nucleolar rRNA biogenesis percent inhibition (HeLa) [%] | nucleolar rRNA biogenesis percent inhibition (hTERT RPE-1) [%] | 5+ nucleoli phenotype percent effect (MCF10A [6]) [%] |
| --- | --- | --- | --- | --- | --- | --- | --- | --- |
| ACCUUGGCUCUAGACUGCUUACU [hsa-miR-212-5p] | -30.9 | 27.9 | 164 | -36.9 | 118 | 95.9 | 114 | 91.8 |
| UAUGGCACUGGUAGAAUUCACU [hsa-miR-183-5p] | 81 | 16.2 | -24 | 101 | 33.5 | 21.8 | 204 | -0.696 |
| UGUCCUCUAGGGCCUGCAGUCU [hsa-miR-3909] | 93.1 | 25.5 | -34.2 | 196 | 42.9 | 74.5 | 66.8 | -15.4 |
| CAAUCAGCAAGUAUACUGCCCU [hsa-miR-34a-3p] | 83.5 | 25.6 | -43.5 | 127 | 70.2 | -6.79 | 113 | 1.68 |
| ACUCGGCGUGGCGUCGGUCGUG [hsa-miR-1307-3p] | 66.2 | 39.9 | -50.5 | 112 | 100 | 40.2 | 13.7 | -13.2 |
| AAGGAGCUUACAAUCUAGCUGGG [hsa-miR-708-5p] | 120 | 27.9 | -34.6 | 187 | -26.3 | 48.6 | 9.05 | 1.8 |
| UAAGGCACGCGGUGAAUGCC [hsa-miR-124-3p] | 70.4 | 39.1 | -14.4 | 139 | 61.9 | 91.7 | 28.2 | 18.1 |
| AGGCGGAGACUUGGGCAAUUG [hsa-miR-25-5p] | 115 | 29.4 | -48.5 | 182 | 75.3 | 86.7 | 45.2 | -9.31 |
| AGAAGGCACUAUGAGAUUUAGA [hsa-miR-605-3p] | 66.4 | 43.9 | -49.9 | 154 | 65 | 23.1 | -22.8 | -15.9 |
| CGGCGGGGACGGCGAUUGGUC [hsa-miR-1908-5p] | 93.7 | 40.6 | -47.2 | 128 | 90.6 | 68.5 | 113 | -7.82 |
| CUGCCAAUUCCAUAGGUCACAG [hsa-miR-192-3p] | 70.5 | 62.7 | -40.8 | 137 | 67.1 | 37.7 | 136 | -12.3 |
| UGGCAGUGUCUUAGCUGGUUGU [hsa-miR-34a-5p] | 11.2 | 11.9 | -14.4 | 28.9 | 72.2 | 37.7 | 52.6 | 19.4 |
| AAGGAGCUCACAGUCUAUUGAG [hsa-miR-28-5p] | 69.4 | 39 | -30.7 | 146 | 0.18 | 60.9 | 63.6 | -2.58 |
| AGCUUUUGGGAAUUCAGGUAGU [hsa-miR-3140-3p] | 91.3 | 17.7 | -25.9 | 159 | 6.44 | 76.4 | 33 | -14.2 |
| UGGUUCUAGACUUGCCAACUA [hsa-miR-182-3p] | 97.2 | 17.5 | -35.8 | 165 | 64.6 | 9.57 | 173 | -12.4 |
| GUUCUCCCAACGUAAGCCCAGC [hsa-miR-629-3p] | -34.6 | 38.5 | 238 | -55.4 | 82.1 | 55.5 | 70.8 | 96.3 |
| UGCCUGUCUACACUUGCUGUGC [hsa-miR-214-5p] | 93.5 | 31.1 | -42.1 | 122 | -8.48 | 32 | 87.1 | -11.5 |
| UGAAGGUCUACUGUGUGCCAGG [hsa-miR-493-3p] | 73 | 28 | -34.3 | 126 | 69.3 | -1.09 | 108 | 4.11 |

| Sequence | one-nucleolus phenotype percent effect (MCF10A [1]) [%] | percent viability (MCF10A [2]) [%] | 5+ nucleoli phenotype percent effect (MCF10A [3]) [%] | one-nucleolus phenotype percent effect (MCF10A [4]) [%] | nucleolar rRNA biogenesis percent inhibition (MCF10A [5]) [%] | nucleolar rRNA biogenesis percent inhibition (HeLa) [%] | nucleolar rRNA biogenesis percent inhibition (hTERT RPE-1) [%] | 5+ nucleoli phenotype percent effect (MCF10A [6]) [%] |
| --- | --- | --- | --- | --- | --- | --- | --- | --- |
| CUCUUGAGGGAAGCACUUUCUGU [hsa-miR-526b-5p] | 71.3 | 28.7 | -54.5 | 81.9 | 130 | 81.5 | 75.9 | -6.22 |
| AGAUCAGAAGGUGAUUGUGGCU [hsa-miR-383-5p] | 68.7 | 14.2 | -26.7 | 125 | 0.973 | 129 | 123 | -5.3 |
| CAGGUCGUCUUGCAGGGCUUCU [hsa-miR-431-3p] | 84.4 | 35.3 | -53.4 | 182 | 83.8 | 115 | 118 | -15.2 |
| CAUCUGGCAUCCGUCACACAGA [hsa-miR-3126-3p] | 67 | 9.11 | -5.56 | 105 | 22.1 | 4.46 | 50.7 | -8.87 |
| AAAGGAGGAAAUAGGCAGGCCA [hsa-miR-3173-3p] | 67.7 | 17.5 | -35.7 | 84.3 | 86.5 | 25.3 | 159 | -0.0263 |
| GAGGGCGGGUGGAGGAGGA [hsa-miR-3141] | 72.7 | 20.1 | -29.5 | 129 | 51.1 | – | – | -4.23 |
| CUCUCCUCCCGGCUUC [hsa-miR-4279] | 87.9 | 14.1 | -34.9 | 188 | 26.8 | – | – | -6.3 |
| CUUAUGCAAGAUUCCCUUCUAC [hsa-miR-491-3p] | 73.6 | 15.5 | -51.5 | 118 | 63.6 | -3.33 | -86.4 | -10.1 |
| CAGCCUCUGCCCUUGGCCUCC [hsa-miR-6877-3p] | 69.1 | 28.9 | -44.7 | 153 | 114 | – | – | -16.2 |
| UUCUCCCACUACCAGGCUCCCA [hsa-miR-4713-5p] | -12.1 | 32.9 | 95.9 | -22.9 | 82.4 | – | – | 43 |
| AGUUUUGCAGGUUUGCAUCCAGC [hsa-miR-19b-1-5p] | 76.9 | 26.2 | -41.5 | 196 | 30.7 | 92.7 | -48.4 | -19.8 |
| GUGUGUGGAAAUGCUUCUGC [hsa-miR-147a] | 95.9 | 18.3 | -15.3 | 103 | 61.8 | – | – | 9.08 |
| GGCCAGCCACCAGGAGGGCUG [hsa-miR-3194-5p] | 81.9 | 18.6 | -36.9 | 199 | 22.9 | -11.3 | 50.9 | 4.28 |
| AAAGGCAUAAAACCAAGACA [hsa-miR-3910] | 97 | 11.9 | -39.2 | 167 | 12.7 | – | – | -8.76 |
| AAGGAGAUGCUCAGGCAGAU [hsa-miR-6888-5p] | 86.2 | 31 | -54 | 173 | 50.6 | – | – | -11.7 |
| UCUCUGGGCCUGUGUCUUAGGC [hsa-miR-330-5p] | 67.1 | 17.8 | -22.3 | 99.9 | 65.2 | 66.1 | 109 | 1.29 |
| ACUGGGCUUGGAGUCAGAAG [hsa-miR-378g] | 91.2 | 16.8 | -34.6 | 159 | 57.9 | – | – | -9.08 |
| CUCUCCCUCUUUACCCACUAG [hsa-miR-6867-3p] | -35 | 61.8 | 133 | -40.4 | 71.1 | – | – | 49.1 |
